From doi:10.1101/2020.07.13.201285 (bioRxiv, 2020)

Target: the molecule itself
Assay: cross-linking

B1: recombinant human glutamine:fructose-6-phosphate amidotransferase 2 with C-terminal HisTag (rhGFAT2-his) (enzyme, UniProt O94808 2-682, looked up)
chain: CGIFAYMNYRVPRTRKEIFETLIKGLQRLEYRGYDSAGVAIDGNNHEVKERHIQLVKKRGKVKALDEELYKQDSMDLKVEFETHFGIAHTRWATHGVPSAVNSHPQRSDKGNEFVVIHNGIITNYKDLRKFLESKGYEFESETDTETIAKLIKYVFDNRETEDITFSTLVERVIQQLEGAFALVFKSVHYPGEAVATRRGSPLLIGVRSKYKLSTEQIPILYRTCTLENVKNICKTRMKRLDSSACLHAVGDKAVEFFFASDASAIIEHTNRVIFLEDDDIAAVADGKLSIHRVKRSASDDPSRAIQTLQMELQQIMKGNFSAFMQKEIFEQPESVFNTMRGRVNFETNTVLLGGLKDHLKEIRRCRRLIVIGCGTSYHAAVATRQVLEELTELPVMVELASDFLDRNTPVFRDDVCFFISQSGETADTLLALRYCKDRGALTVGVTNTVGSSISRETDCGVHINAGPEIGVASTKAYTSQFISLVMFGLMMSEDRISLQNRRQEIIRGLRSLPELIKEVLSLEEKIHDLALELYTQRSLLVMGRGYNYATCLEGALKIKEITYMHSEGILAGELKHGPLALIDKQMPVIMVIMKDPCFAKCQNALQQVTARQGRPIILCSKDDTESSKFAYKTIELPHTVDCLQGILSVIPLQLLSFHLAVLRGYDVDFPRNLAKSVTVE
stoichiometry N: 4
